From PMC6173736

Columns and labels:
Assay in all cases: SEC; HPLC-SEC on a bioZen 1.8 µm SEC-3 column in 150 mM KPi, pH 6.8; absorbance at 280 nm and 655 nm; samples after clicking with BCN-649, in vitro phosphopantetheinylation and purification over Ni-NTA magnetic beads
[1] = biological target: full-length mFAS mutant Gly2113AzPhe with additional ACP knock-out mutation Ser2150Ala (mouse) (UniProt P19096)
[2] = biological target: murine fatty acid synthase type I, wild type, full-length (mouse) (UniProt P19096); conditions: remark: other sources report otherwise
[3] = biological target: full-length mFAS mutant Gly2113AzPhe (mouse) (UniProt P19096)

Sequence of full-length mFAS mutant Gly2113AzPhe with additional ACP knock-out mutation Ser2150Ala (P19096 1-2112, change not shown): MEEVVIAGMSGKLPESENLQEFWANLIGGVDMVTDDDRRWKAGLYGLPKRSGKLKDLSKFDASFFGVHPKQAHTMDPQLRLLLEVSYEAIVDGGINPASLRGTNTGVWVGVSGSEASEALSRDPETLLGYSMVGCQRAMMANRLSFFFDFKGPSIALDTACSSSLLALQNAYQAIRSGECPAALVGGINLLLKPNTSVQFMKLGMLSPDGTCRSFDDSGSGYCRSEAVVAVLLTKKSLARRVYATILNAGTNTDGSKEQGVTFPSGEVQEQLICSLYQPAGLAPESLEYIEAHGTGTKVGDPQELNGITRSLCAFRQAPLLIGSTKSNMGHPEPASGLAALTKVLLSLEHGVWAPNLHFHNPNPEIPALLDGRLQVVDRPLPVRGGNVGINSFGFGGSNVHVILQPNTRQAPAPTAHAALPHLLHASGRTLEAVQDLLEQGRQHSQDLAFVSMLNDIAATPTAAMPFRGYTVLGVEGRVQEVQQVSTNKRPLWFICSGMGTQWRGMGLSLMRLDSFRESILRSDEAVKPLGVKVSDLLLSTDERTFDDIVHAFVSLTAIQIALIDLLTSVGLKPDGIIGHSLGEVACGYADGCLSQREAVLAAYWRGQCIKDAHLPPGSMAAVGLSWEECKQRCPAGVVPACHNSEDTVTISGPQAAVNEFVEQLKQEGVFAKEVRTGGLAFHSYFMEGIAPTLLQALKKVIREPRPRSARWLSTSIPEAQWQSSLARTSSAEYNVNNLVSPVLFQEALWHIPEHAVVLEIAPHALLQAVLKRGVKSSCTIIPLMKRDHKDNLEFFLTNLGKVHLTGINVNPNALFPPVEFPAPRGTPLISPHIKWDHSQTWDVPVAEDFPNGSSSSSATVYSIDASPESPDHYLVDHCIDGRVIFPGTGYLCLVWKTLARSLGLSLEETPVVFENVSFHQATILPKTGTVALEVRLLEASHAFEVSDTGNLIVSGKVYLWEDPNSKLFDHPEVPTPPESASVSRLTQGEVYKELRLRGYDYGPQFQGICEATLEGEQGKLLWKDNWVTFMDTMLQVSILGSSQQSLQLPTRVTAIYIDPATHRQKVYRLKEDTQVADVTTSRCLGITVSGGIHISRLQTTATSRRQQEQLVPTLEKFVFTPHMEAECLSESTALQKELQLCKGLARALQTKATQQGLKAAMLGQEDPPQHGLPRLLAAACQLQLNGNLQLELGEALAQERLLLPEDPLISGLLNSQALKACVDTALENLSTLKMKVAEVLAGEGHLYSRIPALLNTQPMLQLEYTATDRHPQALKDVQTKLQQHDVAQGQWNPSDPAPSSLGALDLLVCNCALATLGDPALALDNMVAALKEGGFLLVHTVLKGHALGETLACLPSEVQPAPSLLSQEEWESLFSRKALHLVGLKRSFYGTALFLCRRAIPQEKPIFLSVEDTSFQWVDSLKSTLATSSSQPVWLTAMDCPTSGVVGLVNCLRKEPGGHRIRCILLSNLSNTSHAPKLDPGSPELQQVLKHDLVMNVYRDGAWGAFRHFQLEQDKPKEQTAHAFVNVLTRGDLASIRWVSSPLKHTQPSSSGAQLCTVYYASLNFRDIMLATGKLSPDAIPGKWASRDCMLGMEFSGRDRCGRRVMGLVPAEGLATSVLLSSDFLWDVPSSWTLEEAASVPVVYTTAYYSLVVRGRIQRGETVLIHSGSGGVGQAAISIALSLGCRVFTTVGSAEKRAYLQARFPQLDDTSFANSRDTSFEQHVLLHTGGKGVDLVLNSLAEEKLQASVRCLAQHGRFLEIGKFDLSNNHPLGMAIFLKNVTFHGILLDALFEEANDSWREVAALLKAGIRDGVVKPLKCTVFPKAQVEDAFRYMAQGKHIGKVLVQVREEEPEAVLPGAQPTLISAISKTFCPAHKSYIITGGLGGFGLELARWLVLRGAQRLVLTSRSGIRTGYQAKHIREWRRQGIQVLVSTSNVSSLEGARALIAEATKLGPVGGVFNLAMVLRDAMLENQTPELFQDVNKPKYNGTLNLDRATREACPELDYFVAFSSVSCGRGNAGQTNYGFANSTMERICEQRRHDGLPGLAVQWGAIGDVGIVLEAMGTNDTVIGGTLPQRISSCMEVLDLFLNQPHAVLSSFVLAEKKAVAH

Question: Which stoichiometry N [1] does the source give for “full-length mFAS mutant Gly2113AzPhe with additional ACP knock-out mutation Ser2150Ala (from UniProt P19096 1-2504) (enzyme)” here?
Answer: 2

Question: For “murine fatty acid synthase type I, wild type, full-length, P19096 1-2504”, which stoichiometry N [2] is on record?
Answer: 2

Question: For “full-length mFAS mutant Gly2113AzPhe (from UniProt P19096 1-2504) (enzyme)”, which stoichiometry N [3] is on record?
Answer: 2
